T1: Human epididymis protein 4 (HE4) (human, UniProt Q14508 31-124)
T1 sequence: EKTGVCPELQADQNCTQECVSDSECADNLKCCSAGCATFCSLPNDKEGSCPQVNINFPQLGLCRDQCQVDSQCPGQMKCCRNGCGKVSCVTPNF


How the values were obtained:
[1] = molecular target: T1, Human epididymis protein 4 (HE4); experiment: thermofluorimetric analysis (SYBR Gold); preliminary data, urine; 100 nM DNA, 0-800 nM HE4, 1/125 diluted artificial urine, 1x SYBR Gold, protein buffer (10.1 mM Na2HPO4, 137 mM NaCl, 2.7 mM KCl, 1.8 mM KH2PO4, 1 mM MgCl2); pH; details: protein: commercial; tags: 6xHis; label: SYBR Gold dye (non-covalent)
[2] = molecular target: T1, Human epididymis protein 4 (HE4); experiment: thermofluorimetric analysis (SYBR Gold); 1/125 artificial urine; HE4 up to 800 nM; 100 nM DNA, 0-800 nM HE4, 1/125 diluted artificial urine, 1x SYBR Gold, protein buffer (10.1 mM Na2HPO4, 137 mM NaCl, 2.7 mM KCl, 1.8 mM KH2PO4, 1 mM MgCl2); pH; details: protein: commercial; tags: 6xHis; label: SYBR Gold dye (non-covalent)

Binder | binding result [1] | binding result [2]
AHE2 (ssDNA) DNA: TCGCACATTCCGCTTCTACCGCCAACATCGTACTCCATCTGCCACCCCCACGTAAGTCCGTGTGTGCGAA | no binding | –
Scramble aptamer DNA (ssDNA) DNA: ATCGCGTCCGTCAATTACCTACGCTGCACCACTTATGAGCCGGTATCGCCATCCGTCAACTCACGCCTCC | – | no binding

From paper PMC9856783, “Identification and Characterization of Aptamers Targeting Ovarian Cancer Biomarker Human Epididymis Protein 4 for the Application in Urine”
